Laboratory results reported in patent publication US20220403023A1.

B1: W345-BMK4.uIgG4.SPK (antibody, from another filing, V domains shown)
VH: QVQLQESGPGLVKPSGTLSLTCAVSGVSIRSINWWNWVRQPPGKGLEWIGEIYHSGSTNYNPSLKSRVTISVDKSKNQFSLKLNSVTAADTAVYYCARDGGIAVTDYYYYGLDVWGQGTTVTVSS
VL: EIVLTQSPATLSLSPGERATLSCRASESVSSNLAWYQQKPGQAPRLLIYGAFNRATGIPARFSGSGSGTDFTLTISSLEPEDFAVYYCQQRSDWFTFGGGTKVEIK
B2: W345-BMK1.uIgG4PE.K (antibody, from another filing, V domains shown)
VH: QMQLVQSGAEVKKTGSSVKVSCKASGFNIKDYYLHWVRQAPGQALEWMGWIDPDQGDTEYAQKFQDRVTITRDRSMSTAYMELSSLRSEDTAMYYCNAAYGSSSYPMDYWGQGTTVTV
VL: NIQMTQSPSAMSASVGDRVTITCKASQDIHRYLSWFQQKPGKVPKHLIYRANRLVSGVPSRFSGSGSGTEFTLTISSLQPEDFATYYCLQYDEFPYTFGGGTKVEIK

Tests used:
[1] = target: CD47 on human red blood cells (human) (UniProt Q08722); assay: FACS on human red blood cells, goat anti-human IgG-Fc PE; blank (Neg) 232
[2] = target: human CD47 ECD protein (human) (UniProt Q08722); assay: competition ELISA against human SIRPα-His (1 µg/mL) on plate-coated human CD47 ECD; ligand only 1.438
[3] = target: human CD47 on engineered CHO-K1 cells (human) (UniProt Q08722); assay: FACS on CHO-K1 cells expressing human CD47 (CHOK1-huCD47), goat anti-human IgG-Fc PE
[4] = target: cynomolgus monkey CD47 on engineered CHO-K1 cells (cynomolgus monkey); assay: FACS on CHO-K1 cells expressing cynomolgus CD47 (CHOK1-cynoCD47), goat anti-human IgG-Fc PE; blank (Neg) 47.6
Chain of cynomolgus monkey CD47 on engineered CHO-K1 cells (cynomolgus monkey) (chain, as listed by the source, change not shown): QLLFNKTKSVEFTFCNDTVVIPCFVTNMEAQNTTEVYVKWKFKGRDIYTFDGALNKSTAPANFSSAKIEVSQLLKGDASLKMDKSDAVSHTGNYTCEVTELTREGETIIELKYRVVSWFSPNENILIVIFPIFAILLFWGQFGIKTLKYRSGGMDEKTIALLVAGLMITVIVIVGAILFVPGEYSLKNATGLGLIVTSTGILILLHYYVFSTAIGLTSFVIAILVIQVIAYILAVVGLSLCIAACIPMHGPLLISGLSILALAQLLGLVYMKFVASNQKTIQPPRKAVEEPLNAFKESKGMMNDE

[5] = target: cynomolgus monkey CD47 on engineered CHO-K1 cells (cynomolgus monkey); assay: FACS on CHO-K1 cells expressing cynomolgus CD47 (CHOK1-cynoCD47), goat anti-human IgG-Fc PE
[6] = target: human CD47 ECD protein (human) (UniProt Q08722); assay: competition ELISA: plate-coated human CD47 ECD (1 µg/mL), antibody titrated together with human SIRPα-His (1 µg/mL), bound SIRPα detected with anti-His-HRP
[7] = target: human CD47 ECD protein (human) (UniProt Q08722); assay: ELISA on plate-coated human CD47 ECD (1 µg/mL), goat anti-human IgG-Fc-HRP, OD450; blank (Neg) 0.102
[8] = target: human CD47 on engineered CHO-K1 cells (human) (UniProt Q08722); assay: FACS on CHO-K1 cells expressing human CD47 (CHOK1-huCD47), goat anti-human IgG-Fc PE; blank (Neg) 34.8
[9] = target: human CD47 on engineered CHO-K1 cells (human) (UniProt Q08722); assay: competition FACS against human SIRPα-His (1 µg/mL) on CHOK1-huCD47 cells; ligand only 1086
[10] = target: human CD47 on engineered CHO-K1 cells (human) (UniProt Q08722); assay: competition FACS: CHO-K1 cells expressing human CD47, antibody titrated together with human SIRPα-His (1 µg/mL), bound SIRPα detected with anti-His-biotin and streptavidin-PE
[11] = target: human CD47 ECD protein (human) (UniProt Q08722); assay: ELISA on plate-coated human CD47 ECD (1 µg/mL), goat anti-human IgG-Fc-HRP, OD450
[12] = target: CD47 on human red blood cells (human) (UniProt Q08722); assay: FACS on human red blood cells, goat anti-human IgG-Fc PE

Binder | Max MFI [1] | Max Inhibit% [2] | Min OD [2] | EC50 [3] | Max MFI [4] | EC50 [5] | IC50 [6] | Max OD [7] | Max MFI [8] | Max Inhibit% [9] | Min MFI [9] | IC50 [10] | EC50 [11] | EC50 [12]
B1 | 37600 MFI | 90.5% | 0.137 OD450 | 1220 pM | 30600 MFI | 38900 pM | 2840 pM | 1.82 OD450 | 55400 MFI | 67.4% | 354 MFI | 1920 pM | 38 pM | 4820 pM
B2 | 42800 MFI | 91.7% | 0.12 OD450 | 430 pM | 34200 MFI | 340 pM | 970 pM | 1.92 OD450 | 50000 MFI | 71.3% | 312 MFI | 510 pM | 19 pM | 690 pM
